Drawing on publication PMC8062585, “Machine learning guided aptamer refinement and discovery”, this text covers Kd for 15 molecules.

For orientation: Kd means the constant that tells how readily two partners part at equilibrium.

One series deals with T1, NGAL (UniProt P80188 21-198). Briefly: bead-based fluorescence binding (flow cytometry); PBSMCT: DPBS with 2.5 mM MgCl2, 0.9 mM CaCl2, 0.01% Tween 20; room temperature, 1 h; bound NGAL detected with iFluor 647 anti-His antibody (6 nM). The settings on record: protein: commercial; tags: C-terminal His-tag; hairpin (predicted).
T1 sequence (P80188 21-198): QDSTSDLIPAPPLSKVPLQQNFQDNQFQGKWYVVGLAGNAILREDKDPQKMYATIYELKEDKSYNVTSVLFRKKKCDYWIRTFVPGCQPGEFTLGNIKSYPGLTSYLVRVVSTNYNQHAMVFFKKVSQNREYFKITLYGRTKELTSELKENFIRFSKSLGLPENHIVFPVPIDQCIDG
GAGGATTTGGTGGATAGTAAATC (ssDNA, 5' biotin) [G13.8 (G13_23)]: the dissociation constant Kd is 1.5 nM. On to ACGTTTTTGGTGGATAGCAAATG (ssDNA, 5' biotin) [G12.5 (G12_23)], for which the Kd was 11 nM.

A further series deals with T1, NGAL. Briefly: bead-based fluorescence, 4-concentration estimate; PBSMCT: DPBS with 2.5 mM MgCl2, 0.9 mM CaCl2, 0.01% Tween 20; room temperature, 1 h; bound NGAL detected with iFluor 647 anti-His antibody (6 nM). To be noted: protein: commercial; tags: C-terminal His-tag.
Consider AGAGGATTTGGTGGATAGTAAAT (ssDNA, 5' biotin) [G13.7], for which the Kd was less than 16 nM. In the case of ACGTTTTTGGTGGATAGCAAATGCCAGGGCCCTTTTTTG (ssDNA, 5' biotin) [G12.1], the Kd is less than 16 nM.

For GAGGATTTGGTGGATAGTAAATCTTTG (ssDNA, 5' biotin) [G13.4], the Kd is less than 8 nM. For the molecule ACGTTTTTGGTGGATAGCAAATGCCAG (ssDNA, 5' biotin) [G12.4], the dissociation constant (Kd) is less than 16 nM.

Turning to GTTTTTGGTGGATAGCAAA (ssDNA, 5' biotin) [G12.6], the dissociation constant Kd was less than 32 nM. As to ACGTTTTTGGTGGATAGCAAATGCCAGGGCCCTTT (ssDNA, 5' biotin) [G12.2], the Kd was less than 32 nM. Regarding ACGTTTTTGGTGGATAGCAAATGCCAGGGCC (ssDNA, 5' biotin) [G12.3], the equilibrium dissociation constant (Kd) is less than 32 nM. TTTGGTGGATAGTAA (ssDNA, 5' biotin) [G13.12]: the dissociation constant (Kd) is less than 256 nM. With AGAGGATTTGGTGGATAGT (ssDNA, 5' biotin) [G13.11], the dissociation constant Kd was less than 1020 nM. Turning to CAAGAGGATTTGGTGGATAGTAAATCTTTGCCTAT (ssDNA, 5' biotin) [G13.2], the equilibrium dissociation constant (Kd) is less than 16 nM. On the same count and under the same terms, the result for CAAGAGGATTTGGTGGATAGTAAATCTTTGCCTATCCAG (ssDNA, 5' biotin) [G13.1] reads less than 16 nM; that for AAGAGGATTTGGTGGATAGTAAATCTT (ssDNA, 5' biotin) [G13.5], less than 8 nM; that for CAAGAGGATTTGGTGGATAGTAAATCTTTGC (ssDNA, 5' biotin) [G13.3], less than 8 nM.

Staying with this series, now noted: protein: commercial; tags: C-terminal His-tag; hairpin (predicted).
On to GAGGATTTGGTGGATAGTAAATC (ssDNA, 5' biotin) [G13.8 (G13_23)], for which the dissociation constant (Kd) was less than 8 nM. Consider ACGTTTTTGGTGGATAGCAAATG (ssDNA, 5' biotin) [G12.5 (G12_23)], for which the Kd is less than 16 nM.
